Read-outs that look alike come from different tables or passages of the source.
How the values were obtained:
Assay in all cases: cryo-EM structure
cryo-EM structure [1] = molecular target: the molecule itself
cryo-EM structure [2] = molecular target: the molecule itself; remark: listed apart in the source
cryo-EM structure [3] = molecular target: the molecule itself; remark: listed apart in the source

B1: Csy3 (natural protein)
chain: MSKPILSTASVLAFERKLDPSDALMSAGAWAQRDASQEWPAVTVREKSVRGTISNRLKTKDRDPAKLDASIQSPNLQTVDVANLPSDADTLKVRFTLRVLGGAGTPSACNDAAYRDKLLQTVATYVNDQGFAELARRYAHNLANARFLWRNRVGAEAVEVRINHIRQGEVARAWRFDALAIGLRDFKADAELDALAELIASGLSGSGHVLLEVVAFARIGDGQEVFPSQELILDKGDKKGQKSKTLYSVRDAAAIHSQKIGNALRTIDTWYPDEDGLGPIAVEPYGSVTSQGKAYRQPKQKLDFYTLLDNWVLRDEAPAVEQQHYVIANLIRGGVFGEAEEK
cryo-EM structure [1]
  stoichiometry N: 5
cryo-EM structure [2]
  stoichiometry N: 6
cryo-EM structure [3]
  stoichiometry N: 4
